{"source": "patent US20200109188A1", "binders": {"B1": {"name": "Antibody 8 (antibody, V domains shown)", "VH": "QVQLQQSGPGLVKPSQTLSLTCVISGDTVSSNRATWNWMRQSPLRGLEWLGRTYYRSKWYNDYAVSVKSRVVINPDTSKNQVSLQLNTVTPDDSGVYFCARGGHITVFGVNIDAFDIWGLGTKVTVSS", "VL": "DIQMTQSPSSLSASVGDRVTISCRASQRLNSYLHWYQQTPGQAPKLLIYATSTLQSGVSPRFSGSGSGTDFTLTISSLQPEDVATYYCQLSRTFGHGTKVEIK"}, "B2": {"name": "Antibody 5 (antibody, V domains shown)", "VH": "QVQLQQSGPGLVKPSQTLSLTCAISGDRVSSNSAVWNWIRQSPSRGLEWLGRTYYRSKWYYDYAESVKSRIVIDPDTSKNQVSLQLNSVTPEDSAIYYCARGGHITVFGLNIDAYDIWGQGAMVTVSS", "VL": "DIQMTQSPSSLSASVGDRVTISCRAQSLSSYLHWYQQKPGQPPKLLIYAATTLQSGVPSRFSGSGSGTDFTLTISTFQAEDVATYYCQQSRTFGQGTKVEIK"}, "B3": {"name": "Antibody 6 (antibody, V domains shown)", "VH": "B2 VH with V107E", "VL": "B2 VL"}, "B4": {"name": "Antibody 10 (antibody, V domains shown)", "VH": "QVQLQQSGPGLVKPSQTLSLTCAISGDSVSSNSATWNWIRQSPSRGLEWLGRTYYRSKWYNDYADFLKRRITINPDTSNNEVSLRLTSVTPDDTALYYCARGGHITVFGVNIDAFDVWGQGTMVTVSS", "VL": "DIQMTQSPSSLSASVGDRITISCRTSQSLRSYLHWYQQKPGKAPKLLIYASSTLQSGVPSRFSGSGSGTDFTLTISNLQPEDFATYYCQLSRTFGQGTKVEIK"}}, "note": "Changes are numbered by the printed parent chain."}
{"target": "recombinant HA subtype H2 (A/Swine/MO/06 (H2N3)) (influenza A virus)", "test": "ELISA, rHA coated", "units": {"EC50": "µg/mL"}}
{"binder": "B1", "EC50": 0.058}
{"binder": "B2", "EC50": 0.048}
{"binder": "B3", "EC50": 0.213}
{"binder": "B4", "EC50": 0.075}
{"target": "recombinant HA subtype H3 (A/Perth/16/09 (H3N2)) (influenza A virus)", "test": "ELISA, rHA coated", "units": {"EC50": "µg/mL"}}
{"binder": "B1", "EC50": 0.067}
{"binder": "B2", "EC50": 0.03}
{"binder": "B3", "EC50": 0.064}
{"binder": "B4", "EC50": 0.049}
{"target": "recombinant HA subtype H5 (A/Vietnam/1203/04 (H5N1)) (influenza A virus)", "test": "ELISA, rHA coated", "units": {"EC50": "µg/mL"}}
{"binder": "B1", "EC50": 0.044}
{"binder": "B2", "EC50": 0.041}
{"binder": "B3", "EC50": 0.256}
{"binder": "B4", "EC50": 0.058}
{"target": "recombinant HA subtype H6 (A/teal/HK/W312/97 (H6N1)) (influenza A virus)", "test": "ELISA, rHA coated", "units": {"EC50": "µg/mL"}}
{"binder": "B1", "EC50": 0.091}
{"binder": "B2", "EC50": 0.047}
{"binder": "B3", "EC50": 0.214}
{"binder": "B4", "EC50": 0.097}
{"target": "recombinant HA subtype H7 (A/Netherlands/219/03 (H7N7)) (influenza A virus)", "test": "ELISA, rHA coated", "units": {"EC50": "µg/mL"}}
{"binder": "B1", "EC50": 0.015}
{"binder": "B2", "EC50": 0.024}
{"binder": "B3", "EC50": 0.116}
{"binder": "B4", "EC50": 0.034}
{"target": "recombinant HA subtype H9 (A/chicken/HK/G9/97 (H9N2)) (influenza A virus)", "test": "ELISA, rHA coated", "units": {"EC50": "µg/mL"}}
{"binder": "B1", "EC50": "> 6"}
{"binder": "B2", "EC50": "> 6"}
{"binder": "B3", "EC50": "> 6"}
{"binder": "B4", "EC50": 2.7}
